Measured values from patent publication US20180086841A1 (Merck Sharp & Dohme, published 2018).
Residue numbers refer to the chain shown, from its start.

Tests used:
Experiment in all cases: flow cytometry on CHO-K1 transfectants;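 note: Anti-hCD27 antibodies tested on transiently transfected CHO-K1 cells bearing hCD27 alanine mutants, 30 min at 4 °C primary incubation, FITC readout excluding debris, dead cells and doublets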
H60A = biological target: T1, H60A
T1 construct: also called hCD27 H60A
T1 receptor chain: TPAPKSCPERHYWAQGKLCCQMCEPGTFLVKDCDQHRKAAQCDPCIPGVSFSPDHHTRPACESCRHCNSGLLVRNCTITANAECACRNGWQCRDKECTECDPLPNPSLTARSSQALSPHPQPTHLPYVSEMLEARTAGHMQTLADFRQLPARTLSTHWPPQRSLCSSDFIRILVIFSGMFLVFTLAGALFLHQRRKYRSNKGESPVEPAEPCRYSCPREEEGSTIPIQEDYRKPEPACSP
Experimental: (§1) The hCD27 variants that were tested are listed. Amino acids correspond to the UniProt P26842-1 sequence. Amino acids 1-20 constitute the signal peptide. Binding is expressed as the geometric mean of the FITC signal, relative to antibody binding to hCD27, which was set at 100%.
(§2) The ability of several anti-hCD27 antibodies to bind to a series of hCD27 alanine mutants was determined using CHO-K1 cells, transiently transfected pCI-neo empty vector, pCI-neo.hCD27 and several pCI-neo.CD27Ala mutant constructs.
(§3) Detached cells were transferred to 96 wells round-bottomed well plates at approximately 1.2×10⁵ cells/well. After spinning down the cells, discarding the supernatants and re-suspending the cells in the residual volume, the primary antibodies were added and incubated for 30 minutes at 4° C. Cells were washed three times with DPBS/BSA 1%, followed by centrifugation, discarding of the supernatants and re-suspension in the residual volume. […] After washing once, antibody binding was detected using the HTS plate reader (FACS Canto II) and FlowJo software for data analysis. Debris, dead cells and doublets were excluded from the analysis. Binding was expressed as the geometric mean of the FITC signal, relative to antibody binding to hCD27, which was set at 100%.

Q15A = biological target: T2, Q15A
T2 construct: also called hCD27 Q15A
T2 receptor chain: T1 receptor chain with Q15A, A60H
Experimental: as §1, §2, §3

K38A = biological target: T3, K38A
T3 construct: also called hCD27 K38A
T3 receptor chain: T1 receptor chain with K38A, A60H
Experimental: as §1, §2, §3

E9A = biological target: T4, E9A
T4 construct: also called hCD27 E9A
T4 receptor chain: T1 receptor chain with E9A, A60H
Experimental: as §1, §2, §3

S63A = biological target: T5, S63A
T5 construct: also called hCD27 S63A
T5 receptor chain: T1 receptor chain with A60H, S63A
Experimental: as §1, §2, §3

P44A = biological target: T6, P44A
T6 construct: also called hCD27 P44A
T6 receptor chain: T1 receptor chain with P44A, A60H
Experimental: as §1, §2, §3

P8A = biological target: T7, P8A
T7 construct: also called hCD27 P8A
T7 receptor chain: T1 receptor chain with P8A, A60H
Experimental: as §1, §2, §3

H36A = biological target: T8, H36A
T8 construct: also called hCD27 H36A
T8 receptor chain: T1 receptor chain with H36A, A60H
Experimental: as §1, §2, §3

Q91A = biological target: T9, Q91A
T9 construct: also called hCD27 Q91A
T9 receptor chain: T1 receptor chain with A60H, Q91A
Experimental: as §1, §2, §3

V30A = biological target: T10, V30A
T10 construct: also called hCD27 V30A
T10 receptor chain: T1 receptor chain with V30A, A60H
Experimental: as §1, §2, §3

B1: hCD27.15-6B (antibody, human IgG4 S228P, kappa, V domains shown)
VH: QVQLVQSGAEVKKPGASVKVSCKASGFIIKATYMHWVRQAPGQRLEWMGRIDPANGETKYDPKFQVRVTITADTSASTAYMELSSLRSEDTAVYYCARYAWYFDVWGQGTLVTVSS
VL: DIQMTQSPSSLSASVGDRVTITCRASENIYSFLAWYQQKPGKAPKLLIYHAKTLAEGVTSRFSGSGSGTDFTLTISSLQPEDSATYYCQHYYGSPLTFGQGTRLEIKR
notes: also called hCD27.15 (humanized 6B); humanized hCD27.15 (human IgG4, Clone 6B)
binding, WT hCD27 = 100 (GM FITC) (H60A): 82.6%
binding, WT hCD27 = 100 (GM FITC) (Q15A): 98.6%
binding, WT hCD27 = 100 (GM FITC) (K38A): 97.6%
binding, WT hCD27 = 100 (GM FITC) (E9A): 58.5%
binding, WT hCD27 = 100 (GM FITC) (S63A): 104%
binding, WT hCD27 = 100 (GM FITC) (P44A): 68.7%
binding, WT hCD27 = 100 (GM FITC) (P8A): 63%
binding, WT hCD27 = 100 (GM FITC) (H36A): 122%
binding, WT hCD27 = 100 (GM FITC) (Q91A): 136%
binding, WT hCD27 = 100 (GM FITC) (V30A): 82.6%
